According to the RNAGym collection of RNA variant scans (doi:10.1093/molbev/msab373):

B1: Azoarcus group I ribozyme (parent)
chain: GUGCCUUGCGCCGGGAAACCACGCAAGGGAUGGUGUCAAAUUCGGCGAAACCUAAGCGCCCGCCCGGGCGUAUGGCAACGCCGAGCCAAGCUUCGGCGCCUGCGCCGAUGAAGGUGUAGAGACUAGACGGCACCCACCUAAGGCAAACGCUAUGGUGAAGGCAUAGUCCAGGGAGUGGCGAAAGUCACACAAACCGG

Variants of: B1
Experiment: reverse-splicing fitness (ratio to wild type); higher = more active; in vitro selection; Mg2+ level not given
In short: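 An in vitro group I ribozyme library with randomized positions was T7-transcribed and gel-purified. In triplicate, 10 pmol RNA in EPPS pH 7.5 was reacted with 50 pmoles of a 30-nt RNA substrate for 1 h at 37 °C across several added MgCl2 levels (1–48 mM), then stopped with EDTA. Products were reverse transcribed from a substrate-complementary primer, PCR-amplified and sequenced (HiSeq 4000). Fitness is a variant's read proportion after selection over that before, normalised to wild type.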

| Variant | reverse-splicing fitness |
| --- | --- |
| A111C A120C A145G C150U C169G U176A | 0.0118 |
| A111C A120C A145G C150U C169G U176G | 0.00574 |
| A111C A120C A145G C150U C169G U176C | 0.0158 |
| A111C A120G A145G C150U | 0.139 |
| A111C A120G A145G C150A | 0.0307 |
| A111C A120G A145G C150G | 0.0228 |
| A111C A120G A145U C169A U176A | 0.0166 |
| A111C A120G A145U C150A | 0.0185 |
| A111C A120G A145U C150G | 0.0193 |
| A111C A120G A145U C150U | 0.113 |
| A111C A120G A145C U176A | 0.0323 |
| A111C A120G A145C U176C | 0.0361 |
| A111C A120G A145C U176G | 0.00548 |
| A111C A120C C150A U176A | 0.0343 |
| A111C A120C C150A U176G | 0.0118 |
| A111C A120C C150A U176C | 0.0495 |
| A111C A120C A145U C169U | 0.189 |
| A111C A120C A145U C169A | 0.0119 |
| A111C A120C A145U C169G | 0.00945 |
| A111C A120C A145U C150G U176G | 0.00607 |
| A111C A120C A145U C150G U176A | 0.0202 |

| Variant | reverse-splicing fitness |
| --- | --- |
| A111C A120C A145U C150G U176C | 0.034 |
| A111C A120G A145U C150A C169U | 0.018 |
| A111C A120G A145U C150A C169G | 0.0221 |
| A111C A120G A145U C150A C169A | 0.0145 |
| A111C A120G A145C C150A | 0.0117 |
| A111C A120G A145C C150U | 0.0418 |
| A111C A120G A145C C150G | 0.0219 |
| A111C A120G A145U C150G C169U U176G | 0.00442 |
| A111C A120G A145U C150G C169U U176C | 0.0151 |
| A111C A120G A145U C150G C169U U176A | 0.0111 |
| A111C A120G A145U C150G C169G U176A | 0.00713 |
| A111C A120G A145U C150G C169G U176C | 0.00574 |
| A111C A120G A145U C150G C169G U176G | 0.00412 |
| A111C A120G A145U C150G C169A U176C | 0.0112 |
| A111C A120G A145U C150G C169A U176A | 0.0089 |
| A111C A120G A145U C150G C169A U176G | 0.00487 |
| A111C A120G A145U C150G U176C | 0.0169 |
| A111C A120G A145U C150G U176G | 0.00305 |
| A111C A120G A145U C150G U176A | 0.00983 |
| A111C A120G A145G U176A | 0.0379 |
| A111C A120G A145G U176C | 0.0456 |

| Variant | reverse-splicing fitness |
| --- | --- |
| A111C A120G A145G U176G | 0.00588 |
| A111C A120G A145G C150G U176G | 0.00613 |
| A111C A120G A145G C150G U176A | 0.00942 |
| A111C A120G A145G C150G U176C | 0.0155 |
| A111C A120C A145G C169U U176G | 0.00591 |
| A111C A120C A145G C169U U176C | 0.0425 |
| A111C A120C A145G C169U U176A | 0.033 |
| A111C A120C A145G C169A | 0.0109 |
| A111C A120C A145G C169U | 0.184 |
| A111C A120C A145G C169G | 0.0102 |
| A111C A120G A145C C150A U176C | 0.0118 |
| A111C A120G A145C C150A U176A | 0.0112 |
| A111C A120G A145C C150A U176G | 0.00357 |
| A111C A120G A145C C150G C169G | 0.0238 |
| A111C A120G A145C C150G C169U | 0.0248 |
| A111C A120G A145C C150G C169A | 0.015 |
| A111C A120C A145G C150U C169G | 0.00981 |
| A111C A120C A145G C150U C169U | 0.147 |
| A111C A120G A145G C150A C169G U176C | 0.0342 |
| A111C A120G A145G C150A C169G U176G | 0.00523 |
| A111C A120G A145G C150A C169G U176A | 0.0195 |

| Variant | reverse-splicing fitness |
| --- | --- |
| A111C A120G A145U C150U C169G U176C | 0.0326 |
| A111C A120G A145U C150U C169G U176A | 0.0211 |
| A111C A120G A145U C150U C169G U176G | 0.00542 |
| A111C A120C C150A C169G U176G | 0.00744 |
| A111C A120C C150A C169G U176C | 0.021 |
| A111C A120C C150A C169G U176A | 0.0198 |
| A111C A120C A145U C169G U176A | 0.0103 |
| A111C A120C A145U C169G U176C | 0.0123 |
| A111C A120C A145U C169G U176G | 0.00445 |
| A111C A120C A145U C150U C169U U176C | 0.0374 |
| A111C A120C A145U C150U C169U U176A | 0.028 |
| A111C A120C A145U C150U C169U U176G | 0.00661 |
| A111C A120G A145C C169U U176C | 0.0394 |
| A111C A120G A145C C169U U176A | 0.0395 |
| A111C A120G A145C C169U U176G | 0.00492 |
| A111C A120G A145C C169A | 0.0989 |
| A111C A120G A145C C169U | 0.146 |
| A111C A120G A145C C169G | 0.201 |
| A111C A120C C150A C169U | 0.0222 |
| A111C A120C C150A C169A | 0.00999 |
